Experimental data published in US20020142359A1 (AstraZeneca / MedImmune, published 2002).
Blank lines part the entries; values can stand above or below the molecule they belong to.

Experiments:
[1] = molecular target: CEA on LS174T colo-rectal tumour cells (UniProt P06731); assay: cell-based or functional assay
[2] = molecular target: T1, CEA (Carcinoembryonic antigen), purified antigen (UniProt P06731 35-685, limits assumed); assay: CEA ELISA (50 ng CEA per well) on NS0 culture supernatants, detected with HRPO anti-human kappa
T1 construct: Purified CEA, 50 ng per well in the CEA ELISA; also called native CEA; untreated CEA
T1 sequence (looked up): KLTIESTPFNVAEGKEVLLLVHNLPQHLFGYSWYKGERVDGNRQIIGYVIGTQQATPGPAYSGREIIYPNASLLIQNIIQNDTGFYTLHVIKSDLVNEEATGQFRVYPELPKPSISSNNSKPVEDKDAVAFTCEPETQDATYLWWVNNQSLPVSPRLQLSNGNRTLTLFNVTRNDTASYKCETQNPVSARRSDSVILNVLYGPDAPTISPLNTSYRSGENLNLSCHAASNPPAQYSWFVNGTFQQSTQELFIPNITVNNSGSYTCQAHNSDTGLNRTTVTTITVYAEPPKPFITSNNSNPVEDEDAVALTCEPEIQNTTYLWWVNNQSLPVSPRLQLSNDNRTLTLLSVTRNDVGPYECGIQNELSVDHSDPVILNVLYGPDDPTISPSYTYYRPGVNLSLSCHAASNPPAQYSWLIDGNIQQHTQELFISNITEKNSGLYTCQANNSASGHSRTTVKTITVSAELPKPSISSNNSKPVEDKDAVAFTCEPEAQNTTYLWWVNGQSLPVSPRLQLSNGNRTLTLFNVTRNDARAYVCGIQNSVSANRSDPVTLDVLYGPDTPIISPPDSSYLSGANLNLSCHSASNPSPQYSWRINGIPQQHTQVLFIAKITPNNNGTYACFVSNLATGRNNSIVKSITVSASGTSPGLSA
Method: (§1) For the CEA ELISA each well of a 96 well immunoplate (NUNC MAXISORB™) was coated with 50 ng CEA in 50 mM carbonate/bicarbonate coating buffer pH9.6 (buffer capsules—Sigma C3041) and incubated at 4° C. overnight. The plate was washed three times with PBS+0.05% Tween 20 and then blocked 150 μl per well of 1% BSA in PBS +0.05% Tween 20 for 1 hour at room temperature. The plate was washed as previously described, 100 μl of test sample added per well and incubated at room temperature for 2 hours. Again the plate was washed three times with PBS+0.05% Tween 20, 100 μl per well of a 1/500 dilution of HRPO-labelled goat anti-human kappa antibody (Sigma A 7164) was added, in 1% BSA in PBS-Tween 20 and incubated at room temperature on a rocking platform for at least 1 hour. The plate was washed as before and then once more with PBS. To detect binding add 100 μl per well developing solution (one capsule of phosphate-citrate buffer—Sigma P4922—dissolved in 100 mls H₂O to which is added one 30 mg tablet o-phenylenediamine dihydrochloride—Sigma P8412) and incubated for up to 15 minutes. The reaction was stopped by adding 75 μl 2M H₂SO₄, and absorbance read at 490 nm.

[3] = molecular target: T1, CEA (Carcinoembryonic antigen), …; assay: CEA ELISA on NS0 culture supernatants (Example 39)
Method: as §1
(§2) As before, the human F(ab′)₂ antibody fragment was then purified from the culture supernatant as described in Example 102.

[4] = molecular target: T1, CEA (Carcinoembryonic antigen), …; assay: CEA ELISA on NS0 culture supernatants (Example 41)
Method: as §1, §2

[5] = molecular target: T1, CEA (Carcinoembryonic antigen), …; assay: CEA ELISA on NS0 culture supernatants (Example 45)
Method: as §1, §2

[6] = molecular target: T1, CEA (Carcinoembryonic antigen), …; assay: CEA ELISA on NS0 culture supernatants (Example 42)
Method: as §1, §2

[7] = molecular target: T1, CEA (Carcinoembryonic antigen), …; assay: CEA ELISA on NS0 culture supernatants (Example 14)
Method: as §1

[8] = molecular target: T1, CEA (Carcinoembryonic antigen), …; assay: CEA ELISA on NS0 culture supernatants (Example 43)
Method: as §1, §2

[9] = molecular target: T1, CEA (Carcinoembryonic antigen), …; assay: CEA ELISA on NS0 culture supernatants (Example 47)
Method: as §1, §2

[10] = molecular target: T1, CEA (Carcinoembryonic antigen), …; assay: CEA ELISA on media from NS0 clones, detected with anti-human kappa peroxidase conjugate
Description: Media from wells containing single viable clones was taken for testing and replaced with fresh media (containing G418).

[11] = molecular target: T1, CEA (Carcinoembryonic antigen), …; assay: EIA of hybridoma supernatants against native CEA; line 806.077 was cloned from one of the positive wells

[3H] thymidine incorporation by T cells on anti-CD3 coated wells (T cells + LS174T/fusion protein) [1]: 41800 cpm
[3H] thymidine uptake, fold over no co-stimulation [1]: > 11 fold
[3H] thymidine uptake, fold over tumour cells alone [1]: > 3 fold
Molecule: human B7.1-murine A5B7 F(ab')2 fusion protein (AB7)

binding result [2]: binds
B1: humanised 806.077 HuVH1/HuVK1 HuIgG2 F(ab')2 (Initial humanised antibody) (antibody, V domains shown)
VH: EVQLQQSGPGLVRPSQTLSLTCTASGFNIKDNYMHWVRQPPGRGLEWIGWIDPENGDTEYAPKFRGRVTMLADTSKNQFSLRLSSVTAADTAVYYCHVLIYAGYLAMDYWGQGTLVTVSS
VL: DIQMTQSPSSLSASVGDRVTITCSASSSVTYMHWYQQKPGKAPKLLIYSTSNLASGVPSRFSGSGSGTDYTFTISSLQPEDIATYYCQQRSTYPLTFGQGTKLEIKR
notes: F(ab')2 fragment secreted by NS0 cells and tested as culture supernatant

binding result [3]: binds
B2: humanised 806.077 HuVH1/HuVK1 HuIgG1 F(ab')2 (antibody, V domains shown)
VH: EVQLQQSGPGLVRPSQTLSLTCTASGFNIKDNYMHWVRQPPGRGLEWIGWIDPENGDTEYAPKFRGRVTMLADTSKNQFSLRLSSVTAADTAVYYCHVLIYAGYLAMDYWGQGTLVTVSS
VL: DIQMTQSPSSLSASVGDRVTITCSASSSVTYMHWYQQKPGKAPKLLIYSTSNLASGVPSRFSGSGSGTDYTFTISSLQPEDIATYYCQQRSTYPLTFGQGTKLEIKR
notes: F(ab')2 fragment from NS0 supernatant; also called HuVH1-HuIgG1 + HuVK1-HuCK

binding result [4]: binds
B3: humanised 806.077 HuVH1/HuVK1 HuIgG3 F(ab')2 (antibody, V domains shown)
VH: EVQLQQSGPGLVRPSQTLSLTCTASGFNIKDNYMHWVRQPPGRGLEWIGWIDPENGDTEYAPKFRGRVTMLADTSKNQFSLRLSSVTAADTAVYYCHVLIYAGYLAMDYWGQGTLVTVSS
VL: DIQMTQSPSSLSASVGDRVTITCSASSSVTYMHWYQQKPGKAPKLLIYSTSNLASGVPSRFSGSGSGTDYTFTISSLQPEDIATYYCQQRSTYPLTFGQGTKLEIKR
notes: F(ab')2 fragment from NS0 supernatant; also called HuVH1-HuIgG3 + HuVK1-HuCK

binding result [5]: binds
B4: humanised 806.077 HuVH1/HuVK4 HuIgG1 F(ab')2 (antibody, V domains shown)
VH: EVQLQQSGPGLVRPSQTLSLTCTASGFNIKDNYMHWVRQPPGRGLEWIGWIDPENGDTEYAPKFRGRVTMLADTSKNQFSLRLSSVTAADTAVYYCHVLIYAGYLAMDYWGQGTLVTVSS
VL: DIQMTQSPSSLSASVGDRVTITCSASSSVTYMHWYQQKPGKAPKLWIYSTSNLASGVPSRFSGSGSGTDYTFTISSLQPEDIATYYCQQRSTYPLTFGQGTKLEIKR
notes: F(ab')2 fragment from NS0 supernatant; also called HuVH1-HuIgG1 + HuVK4-HuCK

binding result [6]: binds
B5: humanised 806.077 HuVH1/HuVK3 HuIgG1 F(ab')2 (antibody, V domains shown)
VH: EVQLQQSGPGLVRPSQTLSLTCTASGFNIKDNYMHWVRQPPGRGLEWIGWIDPENGDTEYAPKFRGRVTMLADTSKNQFSLRLSSVTAADTAVYYCHVLIYAGYLAMDYWGQGTLVTVSS
VL: QIVLTQSPSSLSASVGDRVTITCSASSSVTYMHWYQQKPGKAPKLLIYSTSNLASGVPSRFSGSGSGTDYTFTISSLQPEDIATYYCQQRSTYPLTFGQGTKLEIKR
notes: F(ab')2 fragment from NS0 supernatant; also called HuVH1-HuIgG1 + HuVK3-HuCK

binding result [7]: binds
B6: humanised 806.077 HuVH1/HuVK4 HuIgG2 F(ab')2 (antibody, V domains shown)
VH: EVQLQQSGPGLVRPSQTLSLTCTASGFNIKDNYMHWVRQPPGRGLEWIGWIDPENGDTEYAPKFRGRVTMLADTSKNQFSLRLSSVTAADTAVYYCHVLIYAGYLAMDYWGQGTLVTVSS
VL: DIQMTQSPSSLSASVGDRVTITCSASSSVTYMHWYQQKPGKAPKLWIYSTSNLASGVPSRFSGSGSGTDYTFTISSLQPEDIATYYCQQRSTYPLTFGQGTKLEIKR
notes: F(ab')2 fragment from NS0 supernatant

binding result [8]: binds
B7: humanised 806.077 HuVH1/HuVK3 HuIgG2 F(ab')2 (antibody, V domains shown)
VH: EVQLQQSGPGLVRPSQTLSLTCTASGFNIKDNYMHWVRQPPGRGLEWIGWIDPENGDTEYAPKFRGRVTMLADTSKNQFSLRLSSVTAADTAVYYCHVLIYAGYLAMDYWGQGTLVTVSS
VL: QIVLTQSPSSLSASVGDRVTITCSASSSVTYMHWYQQKPGKAPKLLIYSTSNLASGVPSRFSGSGSGTDYTFTISSLQPEDIATYYCQQRSTYPLTFGQGTKLEIKR
notes: as for B6

binding result [9]: binds
B8: humanised 806.077 HuVH1/HuVK4 HuIgG3 F(ab')2 (antibody, V domains shown)
VH: EVQLQQSGPGLVRPSQTLSLTCTASGFNIKDNYMHWVRQPPGRGLEWIGWIDPENGDTEYAPKFRGRVTMLADTSKNQFSLRLSSVTAADTAVYYCHVLIYAGYLAMDYWGQGTLVTVSS
VL: DIQMTQSPSSLSASVGDRVTITCSASSSVTYMHWYQQKPGKAPKLWIYSTSNLASGVPSRFSGSGSGTDYTFTISSLQPEDIATYYCQQRSTYPLTFGQGTKLEIKR
notes: F(ab')2 fragment from NS0 supernatant; also called HuVH1-HuIgG3 + HuVK4-HuCK

binding result [10]: binds
B9: pro-[A248S,G251T,D253K]HCPB-linker-F(ab')2(humanised 806.077) (other)
heavy: HHGGEHFEGEKVFRVNVEDENHINIIRELASTTQIDFWKPDSVTQIKPHSTVDFRVKAEDTVTVENVLKQNELQYKVLISNLRNVVEAQFDSRVRATGHSYEKYNKWETIEAWTQQVATENPALISRSVIGTTFEGRAIYLLKVGKAGQNKPAIFMDCGFHAREWISPAFCQWFVREAVRTYGREIQVTELLDKLDFYVLPVLNIDGYIYTWTKSRFWRKTRSTHTGSSCIGTDPNRNFDAGWCEIGASRNPCDETYCGPAAESEKETKALADFIRNKLSSIKAYLTIHSYSQMMIYPYSYAYKLGENNAELNALAKATVKELASLHGTKYTYGPGATTIYPSAGTSKDWAYDQGIRYSFTFELRDTGRYGFLLPESQIRATCEETFLAIKYVASYVLEHLYGGGSGGGSGGGSEVQLQQSGPGLVRPSQTLSLTCTASGFNIKDNYMHWVRQPPGRGLEWIGWIDPENGDTEYAPKFRGRVTMLADTSKNQFSLRLSSVTAADTAVYYCHVLIYAGYLAMDYWGQGTLVTVSSASTKGPSVFPLAPCSRSTSGGTAALGCLVKDYFPEPVTVSWNSGALTSGVHTFPAVLQSSGLYSLSSVVTVPSSSLGTQTYTCNVNHKPSNTKVDKRVELKTPLGDTTHTCPRCPEPKSCDTPPPCPRCPEPKSCDTPPPCPRCPEPKSCDTPPPCPRCPAPELLGG
light: DIQMTQSPSSLSASVGDRVTITCSASSSVTYMHWYQQKPGKAPKLWIYSTSNLASGVPSRFSGSGSGTDYTFTISSLQPEDIATYYCQQRSTYPLTFGQGTKLEIKRTVAAPSVFIFPPSDEQLKSGTASVVCLLNNFYPREAKVQWKVDNALQSGNSQESVTEQDSKDSTYSLSSTLTLSKADYEKHKVYACEVTHQGLSSPVTKSFNRGEC
notes: Antibody-enzyme fusion secreted by NS0 cells

binding result [11]: binds
B10: 806.077 antibody (antibody, V domains shown)
VH: EVQLQQSGAELVRSGASVKLSCTASGFNIKDNYMHWVKQRPEQGLEWIAWIDPENGDTEYAPKFRGKATLTADSSSNTAYLHLSSLTSEDTAVYYCHVLIYAGYLAMDYWGQGTSVAVSS
VL: DIELTQSPAIMSASPGEKVTITCSASSSVTYMHWFQQKPGTSPKLWIYSTSNLASGVPARFSGSGSGTSYSLTISRMEAEDAATYYCQQRSTYPLTFGAGTKLELKR
notes: The cDNA primers hybridise to murine IgG1 CH1 and murine kappa constant regions
